Test results reported in patent US20250269025A1 (AVENCELL THERAPEUTICS, published 2025).
No end group written: not given here.

Key:
[1] = target: T1, CD123 on CD123 positive AML cells (Oci-AML3, Molm-13, MV4-11, primary AML cells) (human, UniProt P26951 19-378); assay: cell-based or functional assay
[2] = target: T1, CD123 on CD123 positive AML cells …; assay: cell-based or functional assay; remark: listed apart in the source
[3] = target: T1, CD123 on CD123 positive AML cells …; assay: cell-based or functional assay; remark: listed apart in the source
[4] = target: T1, CD123 on CD123 positive AML cells …; assay: cellular binding assay per table caption, Molm-13 cells
[5] = target: T1, CD123 on CD123 positive AML cells …; assay: cellular binding assay per table caption, Oci-AML3 cells
[6] = target: T2, La epitope 5B9 (SEQ ID No. 28) fused to human Fc domain (human, also: fused to human Fc domain, order, isotype, linker not given here); assay: SPR, Biacore X100, La epitope 5B9-human Fc on CM5 chip; KD 5B9 (second number of the cell)
T2 construct: Coupled to a CM5 sensor chip; not shown: human Fc domain
T2 chain: KPLPEVTDEY
Method: Furthermore, binding of different variants of the targeting module according to the invention was analyzed using the La epitope 5B9 (SEQ ID No. 28) fused to human Fc domain which was coupled to a CM5 sensor chip on a Biacore X100 device (FIG. 3). The targeting modules were purified monomers. The targeting modules were concentrated between 2.47 to 200 nM and measured in technical duplicates. For data fitting and KD calculation a two-state-reaction binding model was applied.

[7] = target: T3, human CD123-Fc (human, UniProt P26951 19-305, limits assumed); assay: SPR, Biacore X100, human CD123-Fc on CM5 chip, 1:1 model; KD CD123 (first number of the cell)
T3 construct: Coupled to a CM5 sensor chip; also called soluble recombinant CD123; not shown: Fc part
T3 sequence (looked up): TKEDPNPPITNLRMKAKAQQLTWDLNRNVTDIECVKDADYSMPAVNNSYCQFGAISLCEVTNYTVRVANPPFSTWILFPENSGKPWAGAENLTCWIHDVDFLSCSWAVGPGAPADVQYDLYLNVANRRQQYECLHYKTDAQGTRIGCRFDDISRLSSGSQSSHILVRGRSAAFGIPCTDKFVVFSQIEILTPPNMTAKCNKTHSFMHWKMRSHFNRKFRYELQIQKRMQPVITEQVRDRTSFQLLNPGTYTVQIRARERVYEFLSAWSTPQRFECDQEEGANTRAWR
Method: Binding of different variants of the targeting module according to the invention was analyzed by SPR measurements using human CD123-Fc coupled to a CM5 sensor chip on a Biacore X100 device (FIG. 2). Targeting modules were purified monomer except for the targeting module according to SEQ ID No. 8. […] For data fitting and KD calculation a 1:1 binding model was applied.

[8] = target: T1, CD123 on CD123 positive AML cells …; assay: flow cytometry on Oci-AML3 cells, anti-His-PE detection. Half-maximal binding from a four-parameter fit of gMFI. Unit taken from the concentration axis [M]
Method: Cellular binding of CD123-binding targeting modules (TM) was tested on CD123 positive target cell lines Oci-AML3 and Molm-13: A) SEQ ID No. 5 to Oci-AML3, B) SEQ ID No. 9 to Oci-AML3, C) SEQ ID No. 4 to Molm-13 and D) SEQ ID No. 6 to Molm-13. The affinity of TMs was analyzed by flow cytometry. The TMs were titrated on an AML cell lines and then detected by a mouse anti-His-tag antibody conjugated to phycoerythrin.
Different concentrations of R-TM123 were incubated with cells, washed and quantified. A dose-response curve was obtained when the geometric mean fluorescence (MFI) was plotted against the TM concentration.

EC50 [4]: 1.2 pM
EC50 [5]: 3 pM
Kd [6]: 3400 pM
Kd [7]: 23 pM
Kd [8]: 2920 pM
B1: targeting module according to SEQ ID No. 5 (bispecific antibody)
chain: EVQLQQSGPELVKPGASVKMSCKASGYTFTDYYMKWVKQSHGKSLEWIGDIIPSNGATFYNQKFKGKATLTVDRSSSTAYMHLNSLTSEDSAVYYCTRSHLLRASWFAYWGQGTLVTVSAASGGGGSGGGGSGGGGSDFVMTQSPSSLTVTAGEKVTMSCKSSQSLLNSGNQKNYLTWYLQKPGQPPKLLIYWASTRESGVPDRFTGSGSGTDFTLTISSVQAEDLAVYYCQNDYSYPYTFGGGTKLEIKAAARGDIVMTQSPDSLAVSLGERATINCKSSQSLLNSRTPKNYLAWYQQKPGQPPKLLIYWASTRKSGVPDRFSGSGSGTDFTLTISSLQAEDVAVYYCKQSYNLLTFGGGTKVEIKGGGGSGGGGSGASAAGGGGSGGGGSQVQLVQSGAEVKKPGASVKVSCKASGYTFTHYYIYWVRQAPGQGLEWMGGVNPSNGGTHFNEKFKSRVTMTRDTSISTAYMELSRLRSDDTAVYYCARSEYDYGLGFAYWGQGTLVTVSSGGGGSHHHHHHHH
notes: also called R-TM123; muCD123 + 5B9-VL-VH
EC50 of R-TM123 for RevCAR-T mediated lysis of MV4-11, Donor #2 [1]: 4.2 pM
EC50 of R-TM123 for RevCAR-T mediated lysis of MV4-11, Donor #3 [1]: 3.8 pM
EC50 of R-TM123 for RevCAR-T mediated lysis of MV4-11, Donor #4 [1]: 3.3 pM
EC50 of R-TM123 for RevCAR-T mediated lysis of MV4-11, Mean [1]: 3.5 pM
EC50 of R-TM123 for RevCAR-T mediated lysis of OCI-AML3, Donor #1 [1]: 8.6 pM
EC50 of R-TM123 for RevCAR-T mediated lysis of OCI-AML3, Donor #2 [1]: 6.7 pM
EC50 of R-TM123 for RevCAR-T mediated lysis of OCI-AML3, Donor #3 [1]: 4.9 pM
EC50 of R-TM123 for RevCAR-T mediated lysis of OCI-AML3, Donor #4 [1]: 2.7 pM
EC50 of R-TM123 for RevCAR-T mediated lysis of OCI-AML3, Mean [1]: 5.7 pM
EC50 of R-TM123 for GM-CSF release by RevCAR-T, co-culture with MOLM-13 [2]: 37.7 pM
EC50 of R-TM123 for Granzyme B release by RevCAR-T, co-culture with MOLM-13 [2]: 4.4 pM
EC50 of R-TM123 for IFN-γ release by RevCAR-T, co-culture with MOLM-13 [2]: 19.3 pM
EC50 of R-TM123 for IL-2 release by RevCAR-T, co-culture with MOLM-13 [2]: 63.9 pM
EC50 of R-TM123 for IL-4 release by RevCAR-T, co-culture with MOLM-13 [2]: 54.2 pM
EC50 of R-TM123 for Perforin release by RevCAR-T, co-culture with MOLM-13 [2]: 3.7 pM
EC50 of R-TM123 for TNF-α release by RevCAR-T, co-culture with MOLM-13 [2]: 53.9 pM
EC50 of R-TM123 for lysis of primary AML cells AML 1 by RevCAR-T, Donor #2 [3]: 3.4 pM
EC50 of R-TM123 for lysis of primary AML cells AML 1 by RevCAR-T, Donor #3 [3]: 2.9 pM
EC50 of R-TM123 for lysis of primary AML cells AML 1 by RevCAR-T, Donor #4 [3]: 1.8 pM
EC50 of R-TM123 for lysis of primary AML cells AML 1 by RevCAR-T, Mean [3]: 2.7 pM
EC50 of R-TM123 for lysis of primary AML cells AML 3 by RevCAR-T, Donor #2 [3]: 3 pM
EC50 of R-TM123 for lysis of primary AML cells AML 3 by RevCAR-T, Donor #3 [3]: 3.8 pM
EC50 of R-TM123 for lysis of primary AML cells AML 3 by RevCAR-T, Donor #4 [3]: 2.2 pM
EC50 of R-TM123 for lysis of primary AML cells AML 3 by RevCAR-T, Mean [3]: 3 pM
EC50 of R-TM123 for lysis of primary AML cells AML 4 by RevCAR-T, Donor #2 [3]: 1.7 pM
EC50 of R-TM123 for lysis of primary AML cells AML 4 by RevCAR-T, Donor #3 [3]: 3.1 pM
EC50 of R-TM123 for lysis of primary AML cells AML 4 by RevCAR-T, Donor #4 [3]: 1.8 pM
EC50 of R-TM123 for lysis of primary AML cells AML 4 by RevCAR-T, Mean [3]: 2.2 pM
EC50 of R-TM123 for lysis of primary AML cells AML 5 by RevCAR-T, Donor #2 [3]: 2.2 pM
EC50 of R-TM123 for lysis of primary AML cells AML 5 by RevCAR-T, Donor #3 [3]: 3.6 pM
EC50 of R-TM123 for lysis of primary AML cells AML 5 by RevCAR-T, Donor #4 [3]: 2.1 pM
EC50 of R-TM123 for lysis of primary AML cells AML 5 by RevCAR-T, Mean [3]: 2.6 pM
